# Data from patent US20250179176A1, “ANTI-TIGIT ANTIBODIES AND USES OF THE SAME” (ARCUS BIOSCIENCES, INC., priority 2022, published 2025).
# Conditions: in vivo
substance,measurement,value
"zimberelimab: antagonistic PD-1 antibody, immune checkpoint inhibitor",Any SAEs Leading to DC,8 (21) n (%)
same,Any SAEs Leading to Study Drug Discontinuation,9 (18.0) n (%)
same,"Any SAEs, events",30 n
same,"Any SAEs, subjects",18 (47.4) n (%)
same,"Any TEAEs of Grade 3 or Higher, events",41 n
same,"Any TEAEs of Grade 3 or Higher, subjects",20 (52.6) n (%)
same,Any TEAEs that are immune-related,24 (48.0) n (%)
same,"Any TEAEs, events",271 n
same,"Any TEAEs, subjects",36 (94.7) n (%)
same,"Grade ≥3 TEAE Acute respiratory failure, events",0 n
same,"Grade ≥3 TEAE Acute respiratory failure, subjects",0 n (%)
same,"Grade ≥3 TEAE Anaemia, events",2 n
same,"Grade ≥3 TEAE Anaemia, subjects",2 (5.3) n (%)
same,"Grade ≥3 TEAE Asthenia, events",2 n
same,"Grade ≥3 TEAE Asthenia, subjects",2 (5.3) n (%)
same,"Grade ≥3 TEAE Chronic obstructive pulmonary disease, events",0 n
same,"Grade ≥3 TEAE Chronic obstructive pulmonary disease, subjects",0 n (%)
same,"Grade ≥3 TEAE Dyspnoea, events",3 n
same,"Grade ≥3 TEAE Dyspnoea, subjects",3 (7.9) n (%)
same,"Grade ≥3 TEAE Fatigue, events",0 n
same,"Grade ≥3 TEAE Fatigue, subjects",0 n (%)
same,"Grade ≥3 TEAE Hyperglycaemia, events",2 n
same,"Grade ≥3 TEAE Hyperglycaemia, subjects",2 (5.3) n (%)
same,"Grade ≥3 TEAE Hyperkalaemia, events",0 n
same,"Grade ≥3 TEAE Hyperkalaemia, subjects",0 n (%)
same,"Grade ≥3 TEAE Hypertension, events",0 n
same,"Grade ≥3 TEAE Hypertension, subjects",0 n (%)
same,"Grade ≥3 TEAE Hypokalaemia, events",3 n
same,"Grade ≥3 TEAE Hypokalaemia, subjects",3 (7.9) n (%)
same,"Grade ≥3 TEAE Hypoxia, events",1 n
same,"Grade ≥3 TEAE Hypoxia, subjects",1 (2.6) n (%)
same,"Grade ≥3 TEAE Myocardial infarction, events",1 n
same,"Grade ≥3 TEAE Myocardial infarction, subjects",1 (2.6) n (%)
same,"Grade ≥3 TEAE Pericardial effusion, events",1 n
same,"Grade ≥3 TEAE Pericardial effusion, subjects",1 (2.6) n (%)
same,"Grade ≥3 TEAE Pleural effusion, events",2 n
same,"Grade ≥3 TEAE Pleural effusion, subjects",2 (5.3) n (%)
same,"Grade ≥3 TEAE Pneumonia, events",2 n
same,"Grade ≥3 TEAE Pneumonia, subjects",2 (5.3) n (%)
same,"Grade ≥3 TEAE Pneumonitis, events",2 n
same,"Grade ≥3 TEAE Pneumonitis, subjects",2 (5.3) n (%)
same,"Grade ≥3 TEAE Pulmonary embolism, events",3 n
same,"Grade ≥3 TEAE Pulmonary embolism, subjects",3 (7.9) n (%)
same,"Grade ≥3 TEAE Respiratory failure, events",0 n
same,"Grade ≥3 TEAE Respiratory failure, subjects",0 n (%)
same,"Grade ≥3 TEAE Sepsis, events",0 n
same,"Grade ≥3 TEAE Sepsis, subjects",0 n (%)
same,"Grade ≥3 TEAE Septic shock, events",1 n
same,"Grade ≥3 TEAE Septic shock, subjects",1 (2.6) n (%)
same,"Grade ≥3 TEAE Spinal compression fracture, events",2 n
same,"Grade ≥3 TEAE Spinal compression fracture, subjects",2 (5.3) n (%)
same,Immune-related TEAE Acute respiratory failure,0 n (%)
same,Immune-related TEAE Bronchospasm,0 n (%)
same,Immune-related TEAE Bulbar palsy,0 n (%)
same,Immune-related TEAE Colitis,0 n (%)
same,Immune-related TEAE Contrast media reaction,1 (2.0) n (%)
same,Immune-related TEAE Diabetes mellitus,1 (2.0) n (%)
same,Immune-related TEAE Diabetic ketoacidosis,1 (2.0) n (%)
same,Immune-related TEAE Drug eruption,1 (2.0) n (%)
same,Immune-related TEAE Erythema,1 (2.0) n (%)
same,Immune-related TEAE Eyelid oedema,0 n (%)
same,Immune-related TEAE Flushing,1 (2.0) n (%)
same,Immune-related TEAE Generalised oedema,0 n (%)
same,Immune-related TEAE Hyperthyroidism,1 (2.0) n (%)
same,Immune-related TEAE Hypothyroidism,4 (8.0) n (%)
same,Immune-related TEAE Idiopathic urticaria,0 n (%)
same,Immune-related TEAE Immune-mediated enterocolitis,1 (2.0) n (%)
same,Immune-related TEAE Infusion related reaction,0 n (%)
same,Immune-related TEAE Lichen planus,0 n (%)
same,Immune-related TEAE Mouth ulceration,0 n (%)
same,Immune-related TEAE Myocarditis,0 n (%)
same,Immune-related TEAE Myositis,1 (2.0) n (%)
same,Immune-related TEAE Pancreatitis,0 n (%)
same,Immune-related TEAE Pneumonitis,7 (14.0) n (%)
same,Immune-related TEAE Pneumonitis Grade ≥3,3 (6) n (%)
same,Immune-related TEAE Pruritus,8 (16.0) n (%)
same,Immune-related TEAE Rash,6 (12.0) n (%)
same,Immune-related TEAE Rash maculo-papular,1 (2.0) n (%)
same,Immune-related TEAE Rash pustular,0) n (%)
same,Immune-related TEAE Respiratory failure,1 (2.0) n (%)
same,Immune-related TEAE Rheumatoid arthritis,0 n (%)
same,Immune-related TEAE Rhinitis allergic,0 n (%)
same,Immune-related TEAE Seasonal allergy,0 n (%)
same,Immune-related TEAE Stomatitis,0 n (%)
same,Immune-related TEAE Thyroiditis,0 n (%)
same,Immune-related TEAE Tracheal obstruction,0 n (%)
same,Immune-related TEAE Type I diabetes mellitus,1 (2.0) n (%)
same,Immune-related TEAE Urticaria,0 n (%)
same,Immune-related TEAE Wheezing,0 n (%)
same,Infusion-related reactions,2 (4) n (%)
same,Rash,6 (12) n (%)
same,"SAE Anaemia, events",0 n
same,"SAE Anaemia, subjects",0 n (%)
same,"SAE Asthenia, events",2 n
same,"SAE Asthenia, subjects",2 (5.3) n (%)
same,"SAE Chronic obstructive pulmonary disease, events",0 n
same,"SAE Chronic obstructive pulmonary disease, subjects",0 n (%)
same,"SAE Myocardial infarction, events",1 n
same,"SAE Myocardial infarction, subjects",1 (2.6) n (%)
same,"SAE Pleural effusion, events",3 n
same,"SAE Pleural effusion, subjects",2 (5.3) n (%)
same,"SAE Pneumonia, events",2 n
same,"SAE Pneumonia, subjects",2 (5.3) n (%)
same,"SAE Pneumonitis, events",1 n
same,"SAE Pneumonitis, subjects",1 (2.6) n (%)
same,"SAE Pulmonary embolism, events",3 n
same,"SAE Pulmonary embolism, subjects",3 (7.9) n (%)
same,"SAE Septic shock, events",1 n
same,"SAE Septic shock, subjects",1 (2.6) n (%)
same,"SAE Spinal compression fracture, events",2 n
same,"SAE Spinal compression fracture, subjects",2 (5.3) n (%)
same,"TEAE Constipation, events",6 n
same,"TEAE Constipation, subjects",4 (10.5) n (%)
same,"TEAE Decreased appetite, events",6 n
same,"TEAE Decreased appetite, subjects",6 (15.8) n (%)
same,"TEAE Diarrhoea, events",7 n
same,"TEAE Diarrhoea, subjects",6 (15.8) n (%)
same,"TEAE Dyspnoea, events",9 n
same,"TEAE Dyspnoea, subjects",7 (18.4) n (%)
same,"TEAE Fatiguc, events",11 n
same,"TEAE Fatiguc, subjects",11 (28.9) n (%)
same,"TEAE Nausea, events",7 n
same,"TEAE Nausea, subjects",7 (18.4) n (%)
same,"TEAE Pneumonia, events",2 n
same,"TEAE Pneumonia, subjects",2 (5.3) n (%)
same,"TEAE Pneumonitis, events",7 n
same,"TEAE Pneumonitis, subjects",6 (15.8) n (%)
same,"TEAE Pruritus, events",6 n
same,"TEAE Pruritus, subjects",6 (15.8) n (%)
same,"TEAE Pyrexia, events",4 n
same,"TEAE Pyrexia, subjects",4 (10.5) n (%)
same,"TEAE Rash, events",8 n
same,"TEAE Rash, subjects",3 (7.9) n (%)
same,"TEAE Vomiting, events",3 n
same,"TEAE Vomiting, subjects",3 (7.9) n (%)
same,TEAEs leading to study drug mod. int.,12 (24.0) n (%)
same,"TEAEs leading to study drug mod. int., related to study treatment",7 (14.0) n (%)
same,"TEAEs leading to zim discon., related to zim",9 (18.0) n (%)
same,"TEAEs leading to zim mod./int., related to zim",7 (14.0) n (%)
same,grade 3 treatment-emergent adverse events,58%
same,tolerability,well tolerated
